Reference: patent US20230227565A1, “Method for Treating CD127-Positive Cancers by Administering an Anti-CD127 Agent” (OSE IMMUNOTHERAPEUTICS, priority 2021, published 2023)

Tests used:
[1] = tested on: normal T cells; experiment: Phagocytosis of normal T cells by macrophages; format: cell-based, human; conditions: FIG. 10
Description: (§1) Phagocytosis assays. In vitro phagocytosis assays were performed by 1-hour coculture of 2,5×10^4 human primary M1 or THP1 macrophages labeled with CellTrackerGreen (ThermoFisher, Waltham, Mass., USA, 1/2000, 20 min at 37° C.) and 5×10^4 leukemic cells labeled with CPD (ThermoFisher, 1/2000 10 min at 37° C.) in serum-free RPMI. Phagocytosis was analyzed by a CytoFLEX flow cytometer (Beckman, Brea, Calif., USA) and analysis using FlowJo software (TreeStar, BD Life Sciences Franklin Lakes, N.J., USAs). The phagocytic index was calculated as follows: fold change of percentage of CPD+ cells in CTG+ macrophages compared to the one detected by treatment with istotype control multiplied by the fold change in geometric mean in APC fluorescence (CPD) in CTG+ macrophages compared to the one detected with isotype control.

[2] = tested on: macrophages; experiment: Toxicity on macrophages (viability); conditions: FIG. 9; increasing doses
[3] = tested on: macrophages; experiment: Phagocytosis of macrophages by macrophages (autophagocytosis); conditions: FIG. 11A
Description: as §1

5F9: reference pro-phagocytic anti-CD47 antibody
phagocytosis of normal T cells by macrophages [1]: A similar result is obtained | overall number of live macrophages [2]: drastically reduced | autophagocytosis of macrophages [3]: have an autophagocytosis activity
